In patent US20210292396A1:

Tests used:
Experiment in all cases: cell-based or functional assay
[1] = molecular target: Env of HIV isolate 0439.v5.c1 (clade A) (HIV)
[2] = molecular target: Env of HIV isolate 191821.E6.1 (clade D) (HIV)
[3] = molecular target: Env of HIV isolate 246-F3.C10.2 (clade AC) (HIV)
[4] = molecular target: Env of HIV isolate 247-23 (clade D) (HIV)
[5] = molecular target: Env of HIV isolate 3468.v1.c12 (clade AD) (HIV)
[6] = molecular target: Env of HIV isolate 5768.04 (clade B) (HIV)
[7] = molecular target: Env of HIV isolate 7165.18 (clade B) (HIV)
[8] = molecular target: Env of HIV isolate AC10.29 (clade B) (HIV)
[9] = molecular target: Env of HIV isolate CAAN.A2 (clade B) (HIV)
[10] = molecular target: Env of HIV isolate CH181.12 (clade BC) (HIV)
[11] = molecular target: Env of HIV isolate CM244.ec1 (clade AE) (HIV)
[12] = molecular target: Env of HIV isolate CNE10 (clade B) (HIV)
[13] = molecular target: Env of HIV isolate CNE19 (clade BC) (HIV)
[14] = molecular target: Env of HIV isolate CNE21 (clade BC) (HIV)
[15] = molecular target: Env of HIV isolate CNE5 (clade AE) (HIV)
[16] = molecular target: Env of HIV isolate CNE57 (clade B) (HIV)
[17] = molecular target: Env of HIV isolate HT593.1 (clade B) (HIV)
[18] = molecular target: Env of HIV isolate P1981.C5.3 (clade G) (HIV)
[19] = molecular target: Env of HIV isolate PVO.04 (clade B) (HIV)
[20] = molecular target: Env of HIV isolate Q769.d22 (clade A) (HIV)
[21] = molecular target: Env of HIV isolate REJO.67 (clade B) (HIV)
[22] = molecular target: Env of HIV isolate TRO.11 (clade B) (HIV)
[23] = molecular target: Env of HIV isolate UG024.2 (clade D) (HIV)
[24] = molecular target: Env of HIV isolate ZA012.29 (clade C) (HIV)
[25] = molecular target: Env of HIV isolate ZM233.6 (clade C) (HIV)
[26] = molecular target: Envelope protein of SVA.MLV (clade NA)
[27] = molecular target: HIV Env of isolate 16936-2.21 (HIV)
[28] = molecular target: HIV Env of isolate 263-8 (HIV)
[29] = molecular target: HIV Env of isolate 3873.v1.c24 (HIV)
[30] = molecular target: HIV Env of isolate 57128.vrc15 (HIV)
[31] = molecular target: HIV Env of isolate 928-28 (HIV)
[32] = molecular target: HIV Env of isolate BB201.B42 (HIV)
[33] = molecular target: HIV Env of isolate BI369.9A (HIV)
[34] = molecular target: HIV Env of isolate BJOX002000.03.2 (HIV)
[35] = molecular target: HIV Env of isolate BJOX028000.10.3 (HIV)
[36] = molecular target: HIV Env of isolate C2101.c1 (HIV)
[37] = molecular target: HIV Env of isolate CE703010217.B6 (HIV)
[38] = molecular target: HIV Env of isolate CH119.10 (HIV)
[39] = molecular target: HIV Env of isolate CNE19 (HIV)
[40] = molecular target: HIV Env of isolate DU422.01 (HIV)
[41] = molecular target: HIV Env of isolate JRCSF.JB (HIV) (UniProt P20871)
Sequence of HIV Env of isolate JRCSF.JB (HIV) (P20871 32-848 limits assumed): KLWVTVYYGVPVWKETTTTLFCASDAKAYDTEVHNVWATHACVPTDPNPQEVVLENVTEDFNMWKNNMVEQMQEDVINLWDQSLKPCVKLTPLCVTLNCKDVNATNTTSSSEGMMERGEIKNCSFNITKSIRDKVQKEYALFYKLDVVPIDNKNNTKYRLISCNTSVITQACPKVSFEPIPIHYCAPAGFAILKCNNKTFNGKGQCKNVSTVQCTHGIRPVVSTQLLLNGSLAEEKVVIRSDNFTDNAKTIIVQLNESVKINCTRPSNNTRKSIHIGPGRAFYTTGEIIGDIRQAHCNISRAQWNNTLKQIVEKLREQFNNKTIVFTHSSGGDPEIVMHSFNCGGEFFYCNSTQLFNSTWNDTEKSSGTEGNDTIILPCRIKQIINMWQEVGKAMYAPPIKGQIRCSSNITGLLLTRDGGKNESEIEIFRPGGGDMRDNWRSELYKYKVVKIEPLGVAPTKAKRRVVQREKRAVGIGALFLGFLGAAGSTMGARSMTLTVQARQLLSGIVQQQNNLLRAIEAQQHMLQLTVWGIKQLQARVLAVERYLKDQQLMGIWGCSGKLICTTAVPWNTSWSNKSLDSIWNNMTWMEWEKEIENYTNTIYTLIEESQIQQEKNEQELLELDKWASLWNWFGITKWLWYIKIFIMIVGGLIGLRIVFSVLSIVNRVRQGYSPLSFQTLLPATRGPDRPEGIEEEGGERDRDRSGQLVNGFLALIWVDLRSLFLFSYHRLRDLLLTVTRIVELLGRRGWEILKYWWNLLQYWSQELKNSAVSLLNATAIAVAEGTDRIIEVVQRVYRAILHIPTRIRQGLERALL

[42] = molecular target: HIV Env of isolate JRFL.JB (HIV)
[43] = molecular target: HIV Env of isolate KER2008.12 (HIV)
[44] = molecular target: HIV Env of isolate KNH1209.18 (HIV)
[45] = molecular target: HIV Env of isolate MI369.A5 (HIV)
[46] = molecular target: HIV Env of isolate RHPA.7 (HIV)
[47] = molecular target: HIV Env of isolate RW020.2 (HIV)
[48] = molecular target: HIV Env of isolate SS1196.01 (HIV)
[49] = molecular target: HIV Env of isolate T278-50 (HIV)
[50] = molecular target: HIV Env of isolate T33-7 (HIV)
[51] = molecular target: HIV Env of isolate TRJO.58 (HIV)
[52] = molecular target: HIV Env of isolate X2278.C2.B6 (HIV)
[53] = molecular target: HIV Env of isolate ZM135.10a (HIV)

PGT121 (antibody) was tested, and the IC50, pseudovirus neutralization [1] was > 50 mg/L, the IC50, pseudovirus neutralization [2] was > 50 mg/L and the IC50, pseudovirus neutralization [3] was > 50 mg/L. The IC50, pseudovirus neutralization [4] was > 50 mg/L, the IC50, pseudovirus neutralization [5] was 0.0763 mg/L and the IC50, pseudovirus neutralization [6] was 0.118 mg/L. For the same substance, the IC50, pseudovirus neutralization [7] was 0.0363 mg/L, the IC50, pseudovirus neutralization [8] was 0.067 mg/L and the IC50, pseudovirus neutralization [9] was 0.0193 mg/L. The IC50, pseudovirus neutralization [10] was 0.0313 mg/L, the IC50, pseudovirus neutralization [11] was > 50 mg/L and the IC50, pseudovirus neutralization [12] was 0.0193 mg/L. For the same substance, the IC50, pseudovirus neutralization [13] was 0.00933 mg/L, the IC50, pseudovirus neutralization [14] was 0.0143 mg/L and the IC50, pseudovirus neutralization [15] was > 50 mg/L. The IC50, pseudovirus neutralization [16] was 0.0283 mg/L, the IC50, pseudovirus neutralization [17] was > 50 mg/L and the IC50, pseudovirus neutralization [18] was 0.007 mg/L. The IC50, pseudovirus neutralization [19] was 0.189 mg/L, the IC50, pseudovirus neutralization [20] was > 50 mg/L and the IC50, pseudovirus neutralization [21] was 1.96 mg/L. For the same substance, the IC50, pseudovirus neutralization [22] was 0.0203 mg/L, the IC50, pseudovirus neutralization [23] was > 50 mg/L and the IC50, pseudovirus neutralization [24] was 0.0117 mg/L. The IC50, pseudovirus neutralization [25] was 0.731 mg/L, the IC50, pseudovirus neutralization [26] was > 50 mg/L and the IC80, pseudovirus neutralization [27] was 0.024 mg/L. The IC80 [28] was 2.5 mg/L, the IC80, pseudovirus neutralization [29] was 0.113 mg/L and the IC80, pseudovirus neutralization [30] was > 50 mg/L. It also gave an IC80 [31] of 29.9 mg/L, an IC80 [32] of 0.0243 mg/L and an IC80 [33] of 0.085 mg/L. The IC80 [34] was 0.068 mg/L, the IC80 [35] was > 50 mg/L and the IC80 [36] was > 50 mg/L. For the same substance, the IC80, pseudovirus neutralization [37] was 0.0173 mg/L, the IC80, pseudovirus neutralization [38] was 0.0937 mg/L and the IC80, pseudovirus neutralization [39] was 0.041 mg/L. For the same substance, the IC80, pseudovirus neutralization [40] was 0.176 mg/L, the IC80 [41] was 0.162 mg/L and the IC80 [42] was 0.107 mg/L. It also gave an IC80 [43] of 6.55 mg/L, an IC80 [44] of 0.0287 mg/L and an IC80 [45] of 0.128 mg/L. It also gave an IC80 [46] of 0.093 mg/L, an IC80 [47] of 0.0177 mg/L and an IC80 [48] of 0.0307 mg/L. The IC80 [49] was > 50 mg/L, the IC80 [50] was > 50 mg/L and the IC80 [51] was 18.6 mg/L. For the same substance, the IC80 [52] was 0.072 mg/L and the IC80, pseudovirus neutralization [53] was 3.69 mg/L.
